{"source": "patent US20140223606", "about": "“COMPOSITIONS AND METHODS COMPRISING SEQUENCES HAVING MEGANUCLEASE ACTIVITY” (PIONEER HI BRED INTERNATIONAL INC, published 2014)", "assay_in_all_cases": "cell_activity; maize", "details_in_all_cases": "tags: SV40 NLS", "key": {"MHP77.3(15)": {"target": "T1, MHP77.3(15) (artificial)", "T1 chain": "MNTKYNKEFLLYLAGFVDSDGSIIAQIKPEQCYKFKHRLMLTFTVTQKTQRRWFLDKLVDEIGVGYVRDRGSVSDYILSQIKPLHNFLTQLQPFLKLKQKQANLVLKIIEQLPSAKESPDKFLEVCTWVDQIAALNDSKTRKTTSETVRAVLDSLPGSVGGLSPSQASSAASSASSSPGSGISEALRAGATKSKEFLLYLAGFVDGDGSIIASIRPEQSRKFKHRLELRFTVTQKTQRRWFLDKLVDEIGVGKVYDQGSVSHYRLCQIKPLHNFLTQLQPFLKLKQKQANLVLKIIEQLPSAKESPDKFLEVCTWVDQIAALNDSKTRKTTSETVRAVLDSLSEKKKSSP"}, "MHP77.3(L9-02)": {"target": "T2, MHP77.3(L9-02) (artificial)", "T2 chain": "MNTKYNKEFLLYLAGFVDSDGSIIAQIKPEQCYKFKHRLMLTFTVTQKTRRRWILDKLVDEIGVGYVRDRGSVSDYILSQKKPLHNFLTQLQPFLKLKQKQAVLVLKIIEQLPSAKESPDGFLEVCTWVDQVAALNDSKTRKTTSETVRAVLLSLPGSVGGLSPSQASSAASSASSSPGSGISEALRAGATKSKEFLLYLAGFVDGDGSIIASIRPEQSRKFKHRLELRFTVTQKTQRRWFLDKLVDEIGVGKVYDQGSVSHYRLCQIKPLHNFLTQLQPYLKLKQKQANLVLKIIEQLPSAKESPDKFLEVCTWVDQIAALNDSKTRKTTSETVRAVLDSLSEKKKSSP"}, "MHP77.3(L9-12)": {"target": "T3, MHP77.3(L9-12) (artificial)", "T3 chain": "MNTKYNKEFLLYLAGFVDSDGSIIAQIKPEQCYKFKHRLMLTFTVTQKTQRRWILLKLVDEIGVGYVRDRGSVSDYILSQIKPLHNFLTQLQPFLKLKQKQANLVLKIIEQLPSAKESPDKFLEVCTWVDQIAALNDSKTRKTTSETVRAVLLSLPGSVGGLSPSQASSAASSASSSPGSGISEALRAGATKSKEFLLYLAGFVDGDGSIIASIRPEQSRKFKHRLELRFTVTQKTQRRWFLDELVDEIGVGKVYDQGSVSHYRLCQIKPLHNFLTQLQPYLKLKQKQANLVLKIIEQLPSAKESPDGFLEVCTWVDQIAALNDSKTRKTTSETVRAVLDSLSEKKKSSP"}, "MHP77.3": {"target": "T4, MHP77.3 (artificial)", "T4 chain": "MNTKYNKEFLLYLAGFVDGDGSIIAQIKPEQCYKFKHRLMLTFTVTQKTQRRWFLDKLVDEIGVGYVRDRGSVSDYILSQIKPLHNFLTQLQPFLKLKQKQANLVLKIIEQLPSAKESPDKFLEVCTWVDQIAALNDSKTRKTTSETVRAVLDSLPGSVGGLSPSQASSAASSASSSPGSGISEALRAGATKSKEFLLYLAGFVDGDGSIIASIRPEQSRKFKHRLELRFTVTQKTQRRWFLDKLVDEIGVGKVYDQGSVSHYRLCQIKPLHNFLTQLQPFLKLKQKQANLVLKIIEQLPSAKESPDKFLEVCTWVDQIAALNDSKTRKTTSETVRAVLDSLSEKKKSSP"}, "MHP77.3(L9-11)": {"target": "T5, MHP77.3(L9-11) (artificial)", "T5 chain": "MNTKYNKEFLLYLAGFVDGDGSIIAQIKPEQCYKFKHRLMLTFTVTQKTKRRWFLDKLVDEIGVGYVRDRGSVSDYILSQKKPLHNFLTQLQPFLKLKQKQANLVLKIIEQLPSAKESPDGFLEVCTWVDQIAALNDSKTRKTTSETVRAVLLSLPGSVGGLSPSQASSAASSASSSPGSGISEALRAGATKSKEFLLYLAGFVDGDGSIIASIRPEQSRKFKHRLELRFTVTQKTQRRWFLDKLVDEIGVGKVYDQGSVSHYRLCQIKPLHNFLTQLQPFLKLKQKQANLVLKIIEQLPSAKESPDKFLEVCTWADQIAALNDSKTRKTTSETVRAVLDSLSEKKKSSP"}}}
{"binder": "MHP77 recognition site (dsDNA) DNA 1: GGGCGGTATGTATGTCATACTA DNA 2: TAGTATGACATACATACCGCCC", "values": [{"measurement": "activity", "setting": "MHP77.3(15)", "result": "22 % target site mutation rate"}, {"measurement": "activity", "setting": "MHP77.3(L9-02)", "result": "5 % target site mutation rate"}, {"measurement": "activity", "setting": "MHP77.3(L9-12)", "result": "19 % target site mutation rate"}, {"measurement": "activity", "setting": "MHP77.3", "result": "11 % target site mutation rate"}, {"measurement": "activity", "setting": "MHP77.3(L9-11)", "result": "35 % target site mutation rate"}]}
